In the Human Domainome abundance scans (Beltran et al. 2025):
± gives the uncertainty stated by the source.

B1: Zinc finger homeobox protein 3, residues 2147 to 2202; numbered along this chain, Q15911 (parent)
chain: RPRTRITDDQLRVLRQYFDINNSPSEEQIKEMADKSGLPQKVIKHWFRNTLFKERQ

Variants of: B1
Assay: abundance fitness (aPCA) (normalised: wild type 0, dead -1); higher = more abundant; growth selection in yeast, the domain comes from the species named
Details: Homo sapiens

Row | Variant | abundance fitness
1 | F47K | -0.774 ± 0.17
2 | F47R | -0.858 ± 0.1
3 | F47L | -0.211 ± 0.09
4 | F47H | -0.699 ± 0.16
5 | F47W | -0.188 ± 0.11
6 | F47A | -0.482 ± 0.094
7 | E54I | 0.235 ± 0.38
8 | E54D | 0.046 ± 0.18
9 | E54L | -0.127 ± 0.1
10 | E54T | -0.048 ± 0.13
11 | E54H | 0.085 ± 0.25
12 | E54Q | 0.04 ± 0.16
13 | E54Y | -0.277 ± 0.15
14 | V42L | -0.103 ± 0.092
15 | A33R | -0.163 ± 0.096
16 | A33K | -0.357 ± 0.2
17 | A33P | -0.908 ± 0.24
18 | A33V | -0.186 ± 0.15
19 | P2V | 0.018 ± 0.09
20 | P2Q | 0.215 ± 0.17
21 | P2S | 0.102 ± 0.092

Row | Variant | abundance fitness
22 | P2W | -0.679 ± 0.11
23 | P2H | 0.012 ± 0.15
24 | P2N | 0.28 ± 0.22
25 | P2A | -0.134 ± 0.1
26 | L11C | -1.12 ± 0.11
27 | L11F | -0.216 ± 0.1
28 | L11Y | -0.297 ± 0.12
29 | L11P | -0.962 ± 0.11
30 | L11M | -0.04 ± 0.098
31 | L11R | 0.034 ± 0.063
32 | T50S | -0.016 ± 0.12
33 | T50I | -0.262 ± 0.15
34 | T50P | -0.335 ± 0.16
35 | T50M | -0.051 ± 0.24
36 | T50C | -0.314 ± 0.17
37 | T50H | -0.048 ± 0.2
38 | T50D | -0.264 ± 0.18
39 | T50R | -0.068 ± 0.096
40 | T50G | -0.187 ± 0.086
41 | T50A | -0.11 ± 0.1
42 | L51C | -0.088 ± 0.11

Row | Variant | abundance fitness
43 | L51V | -0.119 ± 0.077
44 | L51W | -0.34 ± 0.086
45 | L51G | -0.073 ± 0.07
46 | L51M | 0.047 ± 0.12
47 | G37D | -0.103 ± 0.1
48 | G37S | -0.151 ± 0.087
49 | G37F | -0.504 ± 0.15
50 | G37C | -0.037 ± 0.13
51 | G37W | -0.535 ± 0.1
52 | G37Y | -0.424 ± 0.15
53 | G37N | -0.124 ± 0.16
54 | G37I | -0.762 ± 0.26
55 | S23E | -0.123 ± 0.093
56 | S23V | -0.216 ± 0.072
57 | S23I | -0.501 ± 0.23
58 | S23R | -0.085 ± 0.073
59 | S23D | 0.076 ± 0.14
60 | S23C | 0.081 ± 0.16
61 | S23A | -0.033 ± 0.08
62 | S23F | -0.025 ± 0.15
63 | S23H | 0.055 ± 0.28

Row | Variant | abundance fitness
64 | S23T | 0.102 ± 0.11
65 | S23G | -0.268 ± 0.066
66 | L38E | -0.706 ± 0.11
67 | L38G | -0.857 ± 0.075
68 | L38R | -0.971 ± 0.077
69 | L38F | -0.762 ± 0.18
70 | L38Q | -0.649 ± 0.13
71 | L38T | -0.449 ± 0.12
72 | L38D | -1.02 ± 0.18
73 | F52E | -0.015 ± 0.11
74 | F52C | 0.01 ± 0.14
75 | F52T | 0.181 ± 0.12
76 | F52K | 0.185 ± 0.13
77 | F52S | -0.029 ± 0.095
78 | F52I | -0.296 ± 0.16
79 | F52N | 0.069 ± 0.16
80 | K44H | -0.131 ± 0.2
81 | P39L | -0.329 ± 0.078
82 | P39R | -0.156 ± 0.082
83 | P39V | -0.119 ± 0.079
